Measurements published in US12723243B2, “Archaeal pyrrolysyl tRNA synthetases for orthogonal use” (European Molecular Biology Laboratory, priority 2016, dated 2026).

System: mCherry-GFP^Y39TAG amber suppression reporter
Assay: Amber suppression in baculovirus-transduced Sf21 insect cells, flow cytometry
Assay type: cell-based, Spodoptera frugiperda
Procedure: Following standard protocols, insect cells of line Sf21 were cultured in a protein-free, serum-free standard culture medium for Spodoptera frugiperda cells (Sf-900™ III SFM) at 27° C. shaking at 180 rpm. The Sf21 cells were split every day to a density of 0.6×10^6 cells/ml or every third day to a density of 0.3×10^6 cells/ml.
Baculovirus shuttle vector (Bacmid) DNA containing an expression cassette encoding tRNA^Pyl, mCherry-GFP^Y39TAG and either PylRS^AF or NES-PylRS^AF was prepared using standard cloning and recombination procedures.
For transfection 3 ml/well of 0.3×10^6 Sf21 cells/ml were seeded in a 6-well cell culture multidish (Nunclon Delta Surface, Thermo scientific) and transfected with Bacmid DNA using a nonliposomal transfection reagent (FuGENE®HD Transfection Reagent, Promega) following the manufacturer's instructions. V0-virus was harvested 70 h post transfection and the V1-generation was started. Therefor, 25 ml Sf21 cells at 0.6×10^6 cells/ml were transfected with 3 ml of the Vo-virus. After cell proliferation stopped, the cultures were kept for another 48-60 h at 27° C. shaking at 180 rpm. The transfected cells were harvested by centrifugation (500 rpm, 10 min) and the supernatant (i.e., the V1-Virus) was stored at 4° C.
5-25 ml Sf21 cells at 0.6×10^6 cells/ml were transduced with V1-virus prepared by method (I) at a ratio of 100:1 vol/vol (cells:virus). One day afterwards, different amounts of UAA 1 (0-1 mM final concentration) was added to the cultures. After three days of culture, the cells were harvested by centrifugation (500 rpm, 10 min), cooled down to 4° C., resuspended in 2 ml sterile 1×PBS, filtered through a cell strainer (Falcon, 70 μm, Fisher Scientific) and kept on ice until analysis. Data for 500,000 cells of each sample was acquired and analyzed using a LSRFortessa SORP Cell Analyzer (Becton, Dickinson and Company) and the FlowJo software (FlowJo Enterprise). Cells were gated first by cell type (using FSC-A×SSC-A parameters) and then by single cell (FSC-A×SSC-W). GFP fluorescence was acquired in the 488-530/30 channel and mCherry fluorescence in the 561-610/20 channel.
Sf21 cells were transduced with Bacmid DNA encoding tRNA^Pyl, mCherry-GFP^Y39TAG, and either PylRS^AF or NES-PylRS^AF, cultured with different concentrations (0, 10, 50, 100, 250, 500 or 1000 μM) of UAA 1 (BOC) and analyzed using methods (I) and (J) described herein.
mCherry fluorescence of the cells indicated successful transduction with Bacmid DNA. GFP fluorescence of the cells indicated successful suppression of the amber stop codon encoding amino acid position 39 of the GFP^Y39TAG reporter gene by incorporation of UAA 1 at said position.

B1: PylRS^AF: mutant M. mazei pyrrolysyl tRNA synthetase comprising amino acid substitutions Y306A and Y384F, SEQ ID NO:2 (protein)
chain: MDKKPLNTLISATGLWMSRTGTIHKIKHHEVSRSKIYIEMACGDHLVVNNSRSSRTARALRHHKYRKTCKRCRVSDEDLNKFLTKANEDQTSVKVKVVSAPTRTKKAMPKSVARAPKPLENTEAAQAQPSGSKFSPAIPVSTQESVSVPASVSTSISSISTGATASALVKGNTNPITSMSAPVQASAPALTKSQTDRLEVLLNPKDEISLNSGKPFRELESELLSRRKKDLQQIYAEERENYLGKLEREITRFFVDRGFLEIKSPILIPLEYIERMGIDNDTELSKQIFRVDKNFCLRPMLAPNLANYLRKLDRALPDPIKIFEIGPCYRKESDGKEHLEEFTMLNFCQMGSGCTRENLESIITDFLNHLGIDFKIVGDSCMVFGDTLDVMHGDLELSSAVVGPIPLDREWGIDKPWIGAGFGLERLLKVKHDFKNIKRAARSESYYNGISTNL
modifications: Methanosarcina mazei PylRS Y306A, Y384F mutant; MUTAGEN 306 Y306A mutation; MUTAGEN 384 Y384F mutation
Cells showing both mCherry and GFP fluorescence (Sf21, UAA 1 conc. 0 μM): 1.4% | Cells showing only mCherry fluorescence (Sf21, UAA 1 conc. 0 μM): 94.6% | Cells showing both mCherry and GFP fluorescence (Sf21, UAA 1 conc. 10 μM): 20.1% | Cells showing only mCherry fluorescence (Sf21, UAA 1 conc. 10 μM): 75.8% | Cells showing both mCherry and GFP fluorescence (Sf21, UAA 1 conc. 50 μM): 56.2% | Cells showing only mCherry fluorescence (Sf21, UAA 1 conc. 50 μM): 39.3% | Cells showing both mCherry and GFP fluorescence (Sf21, UAA 1 conc. 100 μM): 67.1% | Cells showing only mCherry fluorescence (Sf21, UAA 1 conc. 100 μM): 25.9% | Cells showing both mCherry and GFP fluorescence (Sf21, UAA 1 conc. 250 μM): 76.5% | Cells showing only mCherry fluorescence (Sf21, UAA 1 conc. 250 μM): 13.9% | Cells showing both mCherry and GFP fluorescence (Sf21, UAA 1 conc. 500 μM): 81.6% | Cells showing only mCherry fluorescence (Sf21, UAA 1 conc. 500 μM): 9.1% | Cells showing both mCherry and GFP fluorescence (Sf21, UAA 1 conc. 1000 μM): 85.8% | Cells showing only mCherry fluorescence (Sf21, UAA 1 conc. 1000 μM): 5.7%
